The results in this text go back to patent US20250353909A1 (IMCHECK THERAPEUTICS, published 2025).

In test [1] the target is cynomolgus BTN3A, endogenous on cynomolgus PBMCs (cynomolgus). The experiment in a line: flow cytometry, cynomolgus PBMCs Donor 3, from the fitted curve. (In general: In flow cytometry, cells or beads pass a laser one at a time.)
In test [2] the target is human BTN3A, endogenous on human cells (PBMCs; Daudi cells) (human) (UniProt O00481). The experiment in a line: flow cytometry, human PBMCs Donor 1, PE anti-human secondary.
Test [3] concerns the target BTN3A1 antigen (Sino Biological cat. no. 15973-H08H) (human) (UniProt O00481). Nature of the test: SPR Biacore T200, multi-cycle kinetics, antibody captured on Protein A, BTN3A1 as analyte. For orientation: Surface plasmon resonance follows binding to a sensor surface in real time, without labels.
For test [4] the target is unchanged. The experiment in a line: SPR Biacore T200, single cycle kinetics, culture supernatants.
Test [5] concerns the target cynomolgus BTN3A, endogenous on cynomolgus PBMCs (cynomolgus). The experiment in a line: flow cytometry, cynomolgus PBMCs Donor 1, PE anti-human secondary.
Test [6] has the same target. The experiment in a line: flow cytometry, cynomolgus PBMCs Donor 1, from the fitted curve.
For test [7], the target named is human BTN3A, endogenous on human cells (PBMCs; Daudi cells) (human) (UniProt O00481). The experiment in a line: flow cytometry, human PBMCs Donor 1, from the fitted curve.
For test [8], the target named is cynomolgus BTN3A, endogenous on cynomolgus PBMCs (cynomolgus). Nature of the test: flow cytometry, cynomolgus PBMCs Donor 2, from the fitted curve.
For test [9] the target is unchanged. The experiment in a line: flow cytometry, cynomolgus PBMCs Donor 2, PE anti-human secondary.
Test [10] has the same target. The experiment in a line: flow cytometry, cynomolgus PBMCs Donor 3, PE anti-human secondary.
Test [11] deals with T1, BTN3A1 antigen (Sino Biological cat. no. 15973-H08H) (human, UniProt O00481 30-254).
T1 construct: Bought recombinant antigen; also called CD277
Nature of the test: SPR Biacore T200, multi-cycle kinetics, antibody captured on Protein A, BTN3A1 as analyte. The procedure: Multi-cycle kinetic analysis was performed on the six selected humanized 103.2 variants (VH4/Vκ2, VH4/Vκ3, VH4/Vκ4, VH5/Vκ2, VH5Vκ3, VH5/Vκ4) together with the chimeric antibody and the humanized variant, VH1/Vκ1, using a Biacore T200 (serial no. 1909913) instrument running Biacore T200 Evaluation Software V2.0.1 (Uppsala, Sweden).
Purified antibodies were diluted to a concentration of 2 μg/ml in 2% BSA/PBS. At the start of each cycle, each antibody was captured on the Protein A at a density (RL) of ˜146.5 RU (theoretical value to obtain an RMax of ˜50 RU). Following capture, the surface was allowed to stabilize before injection of the BTN3A1 antigen (Sino Biological cat. no. 15973-H08H). BTN3A1 was titrated in 0.1% BSA/HBS-P+(running buffer) in a two-fold dilution range from 25 to 0.78 nM. The association phase was monitored for 400 seconds and the dissociation phase for 35 minutes (2100 seconds). Kinetic data was obtained using a flow rate of 50 μl/min to minimize any potential mass transfer effects. Regeneration of the Protein A surface was conducted using two injections of 10 mM glycine-HCL pH 1.5 at the end of each cycle. Two blanks (no BTN3A1) and a repeat of a single concentration of the analyte were performed for each tested antibody to check the stability of the surface and analyte over the kinetic cycles. The signal from the reference channel Fc1 was subtracted from that of Fc2, Fc3 and Fc4 to correct for differences in non-specific binding to a reference surface. Additionally, blank runs were subtracted for each Fc to correct any antigen-independent signal variation, such as drift. Sensorgrams were fitted using a one-to-one binding mathematical model with a global RMax parameter and no bulk signal (Constant RI=0 RU).
The relative KD compared to 103.2 chimeric (VH0/Vκ0) was calculated by dividing the KD of the 103.2 Composite Human Antibody™ variants by that of the chimeric on the same chip.

Test [12] deals with T1, BTN3A1 antigen (Sino Biological cat. …). Nature of the test: SPR Biacore T200, single cycle kinetics, culture supernatants. On the procedure:
To assess the binding of all Composite Human Antibody™ variants and to select antibodies with suitable affinity to BTN3A as compared to the original murine antibody, single cycle kinetic analysis was performed on supernatants from transfected cell culture using a Biacore T200 (serial no. 1909913) running Biacore T200 Evaluation Software V2.0.1 (Uppsala, Sweden).

The target in test [13] is T2, human BTN3A, endogenous on human cells (PBMCs; Daudi cells) (human, UniProt O00481 30-513). Nature of the test: cell-based or functional assay.
The target of test [14] is T2, human BTN3A, endogenous on human cells …. The experiment in a line: flow cytometry, human PBMCs Donor 1, PE anti-human secondary. On the procedure: Frozen PBMCs were revived, added to pre-warmed AIM-V (ThermoFisher Scientific, Loughborough, UK) media and counted. Cells were harvested, washed by centrifuging at 500×g for 10 minutes and then resuspended in 1×DPBS, pH 7.4. This step was repeated once and the cells were resuspended in 1×DPBS, pH 7.4 at 1×10⁶ cells/mL. Cells were stained for viable and dead cells by incubating for half an hour in the dark using the LIVE/DEAD® Far Red Dead Cell staining kit (ThermoFisher, Paisley, UK) following the manufacturer's instructions. An aliquot of cells heated at 70° C. for ten minutes was included as the dead cell control. During this staining, a three-point, 1 in 3 titration curve of test antibody (starting from 0.063 μg/mL for the selected antibodies) was prepared in Flow buffer (0.5% BSA, 2 mM EDTA, 1×DPBS, pH 7.4) in a 96-well dilution plate. […] Cells were then analysed on an Attune NxT focusing cytometer (ThermoFisher Scientific, Loughborough, UK), collecting 10,000 events per sample using two laser channels: RL1 for live/dead cells and BL2 for PE. Data was analysed using the instrument statistic tool or FlowJo software (Version 10, FlowJo, LLC, Ashland, USA) gating on the live population of lymphocyte cells. The X-median values from BL2 channel (PE signal) were then calculated and plotted against concentration. […]

For test [15], the target named is T3, human BTN3A2 expressed on HEK293 cells (human, UniProt P78410 30-334).
T3 construct: Cell microarray (Retrogenix); also called BTN3A2 (two isoforms)
Nature of the test: cell microarray (Retrogenix), fixed HEK293 cells, 2 µg/ml antibody.

The target of test [16] is T4, human BTN3A3 expressed on HEK293 cells (human, UniProt O00478 30-584).
T4 construct: Cell microarray (Retrogenix); one isoform of BTN3A3 was a hit; also called BTN3A3 (one isoform)
The description is as above.

Chain of BTN3A1 antigen (Sino Biological cat. no. 15973-H08H) (human) (O00481 30-254 limits assumed): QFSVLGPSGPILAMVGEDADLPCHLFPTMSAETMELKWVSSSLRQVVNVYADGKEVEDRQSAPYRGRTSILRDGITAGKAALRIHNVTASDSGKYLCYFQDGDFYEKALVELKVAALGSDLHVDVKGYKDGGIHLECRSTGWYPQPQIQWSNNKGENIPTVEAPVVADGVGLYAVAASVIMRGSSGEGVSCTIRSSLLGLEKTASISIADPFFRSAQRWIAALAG
T1 sequence (O00481 30-254 limits assumed): as above
Chain of human BTN3A, endogenous on human cells (PBMCs; Daudi cells) (human) (O00481 30-513): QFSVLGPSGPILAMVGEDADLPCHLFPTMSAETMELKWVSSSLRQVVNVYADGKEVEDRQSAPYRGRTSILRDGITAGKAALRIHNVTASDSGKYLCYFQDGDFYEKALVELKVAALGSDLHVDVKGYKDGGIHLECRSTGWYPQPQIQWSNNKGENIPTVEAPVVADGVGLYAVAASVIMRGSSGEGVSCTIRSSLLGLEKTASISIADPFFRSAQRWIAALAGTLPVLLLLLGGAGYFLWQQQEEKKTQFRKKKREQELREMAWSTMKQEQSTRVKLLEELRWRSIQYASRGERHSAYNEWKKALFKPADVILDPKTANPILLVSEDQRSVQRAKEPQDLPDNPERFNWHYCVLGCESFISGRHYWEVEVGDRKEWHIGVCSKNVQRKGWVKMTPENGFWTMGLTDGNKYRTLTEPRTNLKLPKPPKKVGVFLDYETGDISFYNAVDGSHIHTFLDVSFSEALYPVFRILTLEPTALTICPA
T2 sequence (O00481 30-513): as above
T3 sequence (P78410 30-334 limits assumed): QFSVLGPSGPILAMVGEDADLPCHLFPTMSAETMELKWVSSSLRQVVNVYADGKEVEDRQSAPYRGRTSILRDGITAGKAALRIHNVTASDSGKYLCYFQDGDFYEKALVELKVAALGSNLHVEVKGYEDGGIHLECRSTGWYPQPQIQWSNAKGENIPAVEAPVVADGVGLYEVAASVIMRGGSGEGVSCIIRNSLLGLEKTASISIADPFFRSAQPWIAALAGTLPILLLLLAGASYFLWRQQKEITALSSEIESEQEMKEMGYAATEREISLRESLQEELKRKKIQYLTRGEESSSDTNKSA
T4 sequence (O00478 30-584 limits assumed): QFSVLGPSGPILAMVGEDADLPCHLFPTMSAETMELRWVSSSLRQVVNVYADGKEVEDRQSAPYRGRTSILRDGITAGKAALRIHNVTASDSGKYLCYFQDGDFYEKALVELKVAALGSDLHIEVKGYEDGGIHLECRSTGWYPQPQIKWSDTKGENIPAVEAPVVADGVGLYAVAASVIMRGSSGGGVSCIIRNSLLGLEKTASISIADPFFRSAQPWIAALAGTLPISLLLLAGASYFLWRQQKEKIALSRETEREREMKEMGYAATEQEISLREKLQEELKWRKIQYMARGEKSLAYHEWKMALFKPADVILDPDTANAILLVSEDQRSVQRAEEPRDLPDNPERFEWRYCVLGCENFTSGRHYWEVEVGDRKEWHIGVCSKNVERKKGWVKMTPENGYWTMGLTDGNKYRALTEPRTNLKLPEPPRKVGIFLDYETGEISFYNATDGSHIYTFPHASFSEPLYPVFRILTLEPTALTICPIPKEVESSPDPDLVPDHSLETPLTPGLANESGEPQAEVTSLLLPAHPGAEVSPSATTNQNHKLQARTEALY

As a reminder, the EC50 is the concentration at which the effect is half-maximal. For orientation: Kd means the equilibrium constant for the complex coming apart. The koff is the rate constant with which the complex falls apart. A high value points to fast dissociation. Broadly, the kon is the second-order rate constant of association. A lower kon goes with slow association. Consider 103.2 chimeric antibody VH0/Vκ0, for which the Theoretical Max binding (MFI) in test [1] is 5150 MFI; in test [6], 8950 MFI; in test [7], 19600 MFI; in [8], 5940 MFI. The EC50 was found to be 0.019 µg/mL in test [2], 0.014 µg/mL in test [5], 0.012 µg/mL in [9] and 0.013 µg/mL in test [10]. Further, the Kd is 0.106 nM in test [3] and 0.0403 nM in test [4]. This molecule had a Relative KD to chimeric in test [3] of 1. In test [3], this molecule had a koff of 8.98e-05 s⁻¹. In test [3], this molecule displayed a kon of 845000 M⁻¹ s⁻¹. The molecule further showed a Relative KD to 103.2 chimeric in test [4] of 1.

B1: 103.2 humanized variant VH4/Vκ4 (antibody, V domains shown)
VH: QVQMQQSGAEVKKPGASVKVSCKASGYAFTSYLIHWIKQRPGQGLEWIGVINPRSGDSHYNEKFKDRVTMTADQSISTAYMELSRLRSDDTAVYYCARSDYGAYWGQGTLVTVSS
VL: EIVLTQSPATLSVSPGERATLSCRASQSISNNLHWYQQKPGQAPRLLIKYASQSAFGIPARFSGSGSGTEFTLTISSLQSEDFAVYFCQQSNSWPHTFGQGTKLEIK
notes: also called H4K4; 103.2 VH4/V κ 4
Consider B1, for which the Kd in [11] turned out to be 0.108 nM; in test [12], 0.054 nM. The “Relative KD to chimeric” value in test [11] was found to be 1 ratio. This molecule also gave a koff in test [11] of 8.33e-05 s⁻¹. The same molecule displayed a kon in test [11] of 770000 M⁻¹ s⁻¹. Further, the “Relative KD to 103.2 chimeric” value in [12] came to 1.3 ratio. In addition, the “IC50 (µg/ml), inhibition of γδ T cell degranulation (CD107a/b) against Daudi cells” value in test [13] worked out at 0.0121 µg/mL. Besides, the values for the Theoretical Max binding (MFI) in [1], in test [6] and in test [8] were 4970 MFI, 8560 MFI and 5820 MFI, respectively. The EC50 in test [5] was 0.013 µg/mL; in test [14] it was 0.017 µg/mL; in test [9] it was 0.011 µg/mL; in test [10], 0.012 µg/mL.

B2: mAb1 (Fc-silenced humanized 103.2 IgG1) (antibody, V domains shown)
VH: B1 VH
VL: EIVLTQSPATLSVSPGERATLSCRASQSISNNLHWYQQKPGQAPRLLIKYASQSAFGIPARFSGSGSGTEFTLTISSLQSEDFAVYFCQQSNSWPHTFGQGTKLEIKR
notes: Fc-silenced human IgG1, kappa; also called humanized 103.2 Fc-silenced IgG1; Hu103.2
In the case of B2, the binding result in test [15] and in test [16] was “binds” throughout.
